Tests used:
[1] = test system: Clc1cc2c(NC3CCCC3)nnc(-c3ccncc3)c2cc1Cl; settings: Homo sapiens; time 2.0 hrs
[2] = test system: Clc1cc2c(NC3CCCC3)nnc(-c3ccncc3)c2cc1Cl; settings: Homo sapiens; time 2.0 hrs; remark: listed apart in the source

Histone-lysine N-methyltransferase KMT5B (Homo sapiens), Q4FZB7, sequence (Q4FZB7 whole entry): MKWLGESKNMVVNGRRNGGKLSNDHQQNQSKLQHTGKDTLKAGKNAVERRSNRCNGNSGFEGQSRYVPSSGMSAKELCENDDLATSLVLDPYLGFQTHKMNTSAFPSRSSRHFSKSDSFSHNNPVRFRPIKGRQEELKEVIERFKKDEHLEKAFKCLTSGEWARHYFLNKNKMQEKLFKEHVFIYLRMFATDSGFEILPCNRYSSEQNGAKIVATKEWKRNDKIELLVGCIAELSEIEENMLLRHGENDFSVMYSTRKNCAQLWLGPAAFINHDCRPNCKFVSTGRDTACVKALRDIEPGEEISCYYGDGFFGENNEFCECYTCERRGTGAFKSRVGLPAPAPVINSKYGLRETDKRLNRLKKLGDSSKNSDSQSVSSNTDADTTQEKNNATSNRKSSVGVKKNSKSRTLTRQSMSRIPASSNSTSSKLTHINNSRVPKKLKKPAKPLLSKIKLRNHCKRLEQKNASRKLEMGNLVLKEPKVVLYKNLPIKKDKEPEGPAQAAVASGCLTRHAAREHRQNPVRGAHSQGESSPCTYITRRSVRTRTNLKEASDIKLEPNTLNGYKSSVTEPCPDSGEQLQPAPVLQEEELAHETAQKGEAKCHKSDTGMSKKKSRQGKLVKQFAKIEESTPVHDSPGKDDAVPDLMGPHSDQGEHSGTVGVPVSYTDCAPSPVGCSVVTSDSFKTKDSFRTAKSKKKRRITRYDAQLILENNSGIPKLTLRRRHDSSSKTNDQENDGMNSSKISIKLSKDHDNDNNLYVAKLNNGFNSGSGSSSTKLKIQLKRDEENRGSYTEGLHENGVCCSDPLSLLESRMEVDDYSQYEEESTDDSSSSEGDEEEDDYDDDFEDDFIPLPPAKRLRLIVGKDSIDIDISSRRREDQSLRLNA

Histone-lysine N-methyltransferase KMT5B (Homo sapiens), Q4FZB7
Km [1]: 0.0278 µM
Km [2]: 0.0748 µM

Reference: ChEMBL document CHEMBL5649167, “The SUV4-20 inhibitor A-196 verifies a role for epigenetics in genomic integrity” (Nat Chem Biol, 2017)
